Source: PMC13399123, “Interaction of HS1BP3 with cortactin modulates TKS5 localisation, cell secretion and cancer malignancy” (Molecular Oncology, 2026)

Target: T1, full-length MBP-HS1BP3 (UniProt Q53T59 1-392)
T1 construct: HS1BP3, full length; also called HS1BP3 FL; MBP HS1BP3 full-length WT; source: SoluBL21 E. coli, purified (amylose resin, eluted with 10 mM maltose)
T1 sequence (looked up): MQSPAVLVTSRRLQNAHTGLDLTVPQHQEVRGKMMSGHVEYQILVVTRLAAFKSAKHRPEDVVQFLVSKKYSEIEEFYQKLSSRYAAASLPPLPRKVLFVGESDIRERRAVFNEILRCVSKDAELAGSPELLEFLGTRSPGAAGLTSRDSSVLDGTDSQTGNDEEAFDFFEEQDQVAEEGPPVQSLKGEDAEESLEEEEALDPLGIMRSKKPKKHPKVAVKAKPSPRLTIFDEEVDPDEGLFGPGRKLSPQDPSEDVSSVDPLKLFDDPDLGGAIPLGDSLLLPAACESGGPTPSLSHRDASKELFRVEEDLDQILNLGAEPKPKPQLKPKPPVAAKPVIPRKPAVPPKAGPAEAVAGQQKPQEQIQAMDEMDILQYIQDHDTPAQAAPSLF
Experiment: pull-down; equal concentrations of GST-SH3 (on glutathione beads) and purified MBP-tagged HS1BP3 proteins incubated 2 h at 4 °C, six washes with GST-buffer, anti-MBP immunoblot
Details: both partners purified

binding result: binds
B1: GST-SH3 (SH3 domain of cortactin fused to GST) (domain or fragment)
chain: not shown
notes: SH3 domain of cortactin (CTTN); Q14247 amino acids 492-550 are printed only for the SH3 fragment used in the AlphaFold model; Held on glutathione beads as bait; also called GST-SH3 (cortactin); source: SoluBL21 E. coli, purified on Glutathione Sepharose 4B beads
